In article PMC11723922, “The TGF-β mimic TGM4 achieves cell specificity through combinatorial surface co-receptor binding” (EMBO Reports, 2024):

Columns and labels:
[1] = molecular target: T1, Human CD44 extracellular domain, recombinant (human, UniProt P16070 21-649); experiment: ITC; TGM D4-5 fragments with mouse or human CD44 extracellular domain; 25 mM Na2HPO4, 50 mM NaCl, pH 6.0, 35 °C; two datasets globally fit (NITPIC, SEDPHAT); conditions: both partners purified
T1 construct: CD44, human, extracellular domain; also called hCD44; source: expi293 cells, purified from the conditioned medium
T1 sequence (P16070 21-649): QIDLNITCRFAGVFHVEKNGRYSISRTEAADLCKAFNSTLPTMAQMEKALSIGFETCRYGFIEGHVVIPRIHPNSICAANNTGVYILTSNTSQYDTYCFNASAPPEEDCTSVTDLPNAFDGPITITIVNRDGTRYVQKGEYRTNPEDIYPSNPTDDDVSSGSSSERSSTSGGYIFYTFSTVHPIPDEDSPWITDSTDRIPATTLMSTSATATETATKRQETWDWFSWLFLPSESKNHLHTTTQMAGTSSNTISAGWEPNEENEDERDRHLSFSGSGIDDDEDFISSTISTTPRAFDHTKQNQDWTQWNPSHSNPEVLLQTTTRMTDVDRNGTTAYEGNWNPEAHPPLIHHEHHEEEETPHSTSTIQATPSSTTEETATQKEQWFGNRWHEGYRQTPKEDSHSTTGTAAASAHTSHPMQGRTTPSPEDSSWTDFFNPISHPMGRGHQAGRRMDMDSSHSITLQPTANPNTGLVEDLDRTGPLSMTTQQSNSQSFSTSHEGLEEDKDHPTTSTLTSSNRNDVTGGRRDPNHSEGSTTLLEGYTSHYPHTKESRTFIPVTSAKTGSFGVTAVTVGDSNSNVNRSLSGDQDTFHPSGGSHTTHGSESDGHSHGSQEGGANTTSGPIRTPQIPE

[2] = molecular target: T2, Mouse CD44 extracellular domain, recombinant (mouse, UniProt P15379 23-685); experiment: as above; conditions: both partners purified
T2 construct: CD44, mouse, extracellular domain; also called mCD44; murine CD44; source: expi293 cells, purified from the conditioned medium
T2 sequence (looked up): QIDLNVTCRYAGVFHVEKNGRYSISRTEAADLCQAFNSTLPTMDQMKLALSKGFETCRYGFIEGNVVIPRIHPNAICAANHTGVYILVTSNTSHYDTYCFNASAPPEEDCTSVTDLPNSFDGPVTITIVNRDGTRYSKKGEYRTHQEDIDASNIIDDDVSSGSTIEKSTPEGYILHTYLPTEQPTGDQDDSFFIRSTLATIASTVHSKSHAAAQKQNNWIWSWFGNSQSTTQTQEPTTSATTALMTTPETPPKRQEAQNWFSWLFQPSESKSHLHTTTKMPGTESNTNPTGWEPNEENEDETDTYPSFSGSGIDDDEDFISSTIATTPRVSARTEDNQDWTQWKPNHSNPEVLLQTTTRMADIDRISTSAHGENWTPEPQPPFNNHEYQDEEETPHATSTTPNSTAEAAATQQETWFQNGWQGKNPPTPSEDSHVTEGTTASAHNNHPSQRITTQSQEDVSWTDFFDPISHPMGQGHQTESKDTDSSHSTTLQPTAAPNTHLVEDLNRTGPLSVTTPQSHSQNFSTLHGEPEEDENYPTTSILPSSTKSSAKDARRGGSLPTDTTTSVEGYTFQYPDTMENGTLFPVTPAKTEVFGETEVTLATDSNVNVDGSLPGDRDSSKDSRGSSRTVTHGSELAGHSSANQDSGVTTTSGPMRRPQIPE

B1: TGM4 D4-5, recombinant (domain or fragment)
chain: RCKPLETNVSVHYEYFTMTNETGRKEGTPAEVDKGGKYPQHTCVRKFCDKSPYTCSVKGPIFGECLDGQWNFTALDECLNARGCNSDDLFDKLGFEGVMVREEEGSDSYKDDFVRFYATGSKVNAECKGKTVQLECSDGEWHDPGTKTVHRCTKEGIRAL
modifications: biotinylated in the streptavidin pull-downs; Alexa Fluor 488 label in flow cytometry; unlabelled in ITC and as competitor
Work on B1 yielded a Kd [1] of 78 nM and a Kd [2] of 20 nM.

B2: TGM1 D4-5, recombinant (domain or fragment)
chain: RCKPLEANESVHYEYFTMTNETDKKKGPPAKVGKSGKYPEHTCVKKVCSKWPYTCSTGGPIFGECIGATWNFTALMECINARGCSSDDLFDKLGFEKVIVRKGEGSDSYKDDFARFYATGSKVIAECGGKTVRLECSNGEWHEPGTKTVHRCTKDGIRTL
B2 was tested, and the Kd [1] was 122 nM and the Kd [2] was 30 nM.
